“And” between values parts separate entries of the source, which are not always exact repeats. Equal entries are not always repeated.
T1: full-length β-catenin 1-781 (mouse, UniProt Q02248 1-781)
T1 construct: also called β-catenin FL; source: E. coli BL21 (DE3), purified (Ni-NTA, SEC)
T1 sequence (looked up): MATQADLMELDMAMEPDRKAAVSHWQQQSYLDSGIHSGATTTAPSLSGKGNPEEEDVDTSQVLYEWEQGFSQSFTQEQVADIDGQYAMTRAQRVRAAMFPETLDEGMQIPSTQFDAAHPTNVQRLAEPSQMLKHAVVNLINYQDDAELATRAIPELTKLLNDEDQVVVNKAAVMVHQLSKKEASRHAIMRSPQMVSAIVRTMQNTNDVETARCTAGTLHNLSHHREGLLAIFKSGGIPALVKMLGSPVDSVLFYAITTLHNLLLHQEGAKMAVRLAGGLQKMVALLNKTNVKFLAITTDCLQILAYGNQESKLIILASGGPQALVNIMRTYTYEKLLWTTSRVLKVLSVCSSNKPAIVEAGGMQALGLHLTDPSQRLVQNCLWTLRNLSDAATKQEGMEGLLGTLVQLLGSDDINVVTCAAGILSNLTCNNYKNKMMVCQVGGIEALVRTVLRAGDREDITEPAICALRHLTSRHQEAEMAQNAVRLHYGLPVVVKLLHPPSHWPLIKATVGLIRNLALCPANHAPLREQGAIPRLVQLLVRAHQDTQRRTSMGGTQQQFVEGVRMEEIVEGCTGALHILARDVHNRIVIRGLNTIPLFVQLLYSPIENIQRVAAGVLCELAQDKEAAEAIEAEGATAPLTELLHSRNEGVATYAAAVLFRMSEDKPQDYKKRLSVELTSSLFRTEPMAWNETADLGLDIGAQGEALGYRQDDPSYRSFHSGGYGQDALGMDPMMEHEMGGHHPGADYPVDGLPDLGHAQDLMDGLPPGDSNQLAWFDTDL

B1: Ankyrin-G 24 ANK repeats (residues 38-855) (domain or fragment, UniProt O70511 38-855, looked up)
chain: KSDANASYLRAARAGHLEKALDYIKNGVDVNICNQNGLNALHLASKEGHVEVVSELLQREANVDAATKKGNTALHIASLAGQAEVVKVLVTNGANVNAQSQNGFTPLYMAAQENHLEVVRFLLDNGASQSLATEDGFTPLAVALQQGHDQVVSLLLENDTKGKVRLPALHIAARKDDTKAAALLLQNDTNADIESKMVVNRATESGFTPLHIAAHYGNINVATLLLNRAAAVDFTARNDITPLHVASKRGNANMVKLLLDRGAKIDAKTRDGLTPLHCGARSGHEQVVEMLLDRAAPILSKTKNGLSPLHMATQGDHLNCVQLLLQHNVPVDDVTNDYLTALHVAAHCGHYKVAKVLLDKKANPNAKALNGFTPLHIACKKNRIRVMELLLKHGASIQAVTESGLTPIHVAAFMGHVNIVSQLMHHGASPNTTNVRGETALHMAARSGQAEVVRYLVQDGAQVEAKAKDDQTPLHISARLGKADIVQQLLQQGASPNAATTSGYTPLHLSAREGHEDVAAFLLDHGASLSITTKKGFTPLHVAAKYGKLEVASLLLQKSASPDAAGKSGLTPLHVAAHYDNQKVALLLLDQGASPHAAAKNGYTPLHIAAKKNQMDIATSLLEYGADANAVTRQGIASVHLAAQEGHVDMVSLLLSRNANVNLSNKSGLTPLHLAAQEDRVNVAEVLVNQGAHVDAQTKMGYTPLHVGCHYGNIKIVNFLLQHSAKVNAKTKNGYTPLHQAAQQGHTHIINVLLQNNASPNELTVNGNTALAIARRLGYISVVDTLKVVTEEIMTTTTITEKHKMNVPETMNEVLDMS
notes: Ankyrin-G, 24 ANK repeats, residues 38-855; The ITC methods name 'Trx-AnkG R1-24'; also called AnkG R1-24; AnkG ANK repeats; source: E. coli BL21 (DE3), purified (Ni-NTA, SEC); not shown: Trx, N-terminal, kept; His6, N-terminal, kept
B2: E-cadherin C-terminal domain (residues 734-884) (domain or fragment)
chain: not shown
notes: The ITC methods name 'Trx-E-cadherin'; 15N-labelled for the HSQC titration; also called E-cadherin CTD; CTD; source: E. coli BL21 (DE3), purified (Ni-NTA, SEC); not shown: Trx, N-terminal, kept; His6, N-terminal, kept

Experiments:
Conditions in all cases: both partners purified
[1] = target: B2; test: SEC-MALS; FPLC coupled with static light scattering; 70 μM E-cadherin with 70, 140, 210 or 280 μM AnkG (molar ratios 1:1 to 1:4); Superdex 200 increase; 50 mM Tris, 100 mM NaCl, 1 mM EDTA, 1 mM DTT, pH 7.8
[2] = target: T2, E-cadherin CTD–β-catenin complex (mouse, UniProt P09803 734-884; Q02248 1-781); test: SEC-MALS; analytical gel filtration with static light scattering; AnkG R1-24, E-cadherin CTD and β-catenin 1-781 mixed at 1:1:1, 2:1:1, 3:1:1 and 4:1:1 molar ratios; also E-cadherin CTD with β-catenin 1-781 alone
T2 construct: Formed beforehand for the ITC titration to AnkG R1-24; in the light scattering experiment the three proteins were mixed together; source: E. coli BL21 (DE3), purified (Ni-NTA, SEC)

[3] = target: B1; test: ITC; E-cadherin proteins in the syringe (e.g. 200 μM Trx-E-cadherin) titrated into AnkG in the cell (e.g. 20 μM Trx-AnkG R1-24); 25 °C; 50 mM Tris, 100 mM NaCl, 1 mM EDTA, 1 mM DTT, pH 7.8; one-site binding model
[4] = target: B1; test: SEC-MALS; FPLC coupled with static light scattering; 70 μM E-cadherin with 70, 140, 210 or 280 μM AnkG (molar ratios 1:1 to 1:4); Superdex 200 increase; 50 mM Tris, 100 mM NaCl, 1 mM EDTA, 1 mM DTT, pH 7.8
[5] = target: T1, full-length β-catenin 1-781; test: SEC-MALS; analytical gel filtration with static light scattering; AnkG R1-24, E-cadherin CTD and β-catenin 1-781 mixed at 1:1:1, 2:1:1, 3:1:1 and 4:1:1 molar ratios; also E-cadherin CTD with β-catenin 1-781 alone

T2 sequence (P09803 734-884, one chain of several): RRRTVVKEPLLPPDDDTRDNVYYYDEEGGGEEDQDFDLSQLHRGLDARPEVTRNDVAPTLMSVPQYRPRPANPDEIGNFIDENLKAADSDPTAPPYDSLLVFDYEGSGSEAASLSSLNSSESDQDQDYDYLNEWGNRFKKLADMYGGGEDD

| Kd [3] | Binder | further results |
| --- | --- | --- |
| – | B1 | stoichiometry N [1]: 1 AnkG R1-24 per E-cadherin CTD and 2 AnkG R1-24 per E-cadherin CTD; stoichiometry N [2]: 1 to 2 AnkG R1-24 per E-cadherin CTD and β-catenin |
| ~1.9 µM | E-cadherin 828-884 (including both site-2 and site-3) (domain or fragment, source: E. coli BL21 (DE3), purified (Ni-NTA, SEC); not shown: Trx, N-terminal, kept; His6, N-terminal, kept) not shown | stoichiometry N [4]: 1 |
| ~0.9 µM | YYYDEEGGGEEDQDFD (domain or fragment, mouse, UniProt P09803 755-770, looked up, E-cadherin, mouse, residues 755-770; also called E-cadherin site-1; source: E. coli BL21 (DE3), purified (Ni-NTA, SEC); not shown: Trx, N-terminal, kept; His6, N-terminal, kept) [E-cadherin residues 755-770 (site-1)] | – |
| ~1.3 µM | B2 | stoichiometry N [3]: ~0.22; binding result [5]: binds |
| ~1.9 µM | PYDSLLVFDYEGSGS (domain or fragment, mouse, UniProt P09803 828-842, looked up, For the methyl-TROSY NMR fused to the N-terminus of AnkG R8-24; also called E-cadherin site-2; source: E. coli BL21 (DE3), purified (Ni-NTA, SEC); not shown: Trx, N-terminal, kept; His6, N-terminal, kept) [E-cadherin residues 828-842 (site-2)] | – |
| ~1.8 µM | ESDQDQDYDYLNEWGN (domain or fragment, mouse, UniProt P09803 854-869, looked up, E-cadherin, mouse, residues 854-869; also called E-cadherin site-3; source: E. coli BL21 (DE3), purified (Ni-NTA, SEC); not shown: Trx, N-terminal, kept; His6, N-terminal, kept) [E-cadherin residues 854-869 (site-3)] | – |

Reference: PMC10611751, “Dynamic interactions between E-cadherin and Ankyrin-G mediate epithelial cell polarity maintenance” (Nature Communications, 2023)
